Reference: paper PMC11209382, “Exploring the Potentiality of a Plant Platform for Monoclonal Antibody Production in Veterinary Medicine” (Vaccines, 2024)

T1: canine neonatal Fc receptor, C-terminus biotinylated, attached to Streptavidin (cFcRn-SmBiT) (canine, biotin at the C-terminus)
T1 chain 1: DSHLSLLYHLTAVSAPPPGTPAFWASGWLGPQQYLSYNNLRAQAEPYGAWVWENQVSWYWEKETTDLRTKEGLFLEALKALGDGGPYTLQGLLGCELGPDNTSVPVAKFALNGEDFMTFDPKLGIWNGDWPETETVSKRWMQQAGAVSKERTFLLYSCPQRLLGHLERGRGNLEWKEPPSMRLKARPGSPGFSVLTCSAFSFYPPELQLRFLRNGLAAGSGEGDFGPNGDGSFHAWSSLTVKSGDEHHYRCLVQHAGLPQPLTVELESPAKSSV
T1 chain 2: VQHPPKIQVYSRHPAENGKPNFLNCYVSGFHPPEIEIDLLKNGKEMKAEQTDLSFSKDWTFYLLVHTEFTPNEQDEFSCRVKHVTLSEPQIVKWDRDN

T2: recombinant canine Interleukin 31 produced in HEK cells (canine)
T2 chain: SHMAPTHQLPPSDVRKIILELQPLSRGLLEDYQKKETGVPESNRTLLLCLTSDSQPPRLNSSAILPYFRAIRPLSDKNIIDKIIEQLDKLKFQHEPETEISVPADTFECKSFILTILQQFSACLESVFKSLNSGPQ

T3: recombinant canine Interleukin 31 produced in HEK cells (canine)
T3 construct: canine Interleukin 31 (IL-31); also called rcIL-31 (HEK); cIL-31 (HEK); source: produced in HEK cells
T3 chain: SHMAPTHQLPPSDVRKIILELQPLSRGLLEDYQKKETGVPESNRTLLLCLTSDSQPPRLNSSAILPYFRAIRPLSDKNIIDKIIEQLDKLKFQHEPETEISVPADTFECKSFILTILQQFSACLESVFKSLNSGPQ


Columns and labels:
[1] = molecular target: recombinant canine Interleukin 31 produced in Nicotiana benthamiana (canine); test: SEC; elution volume on a calibrated Superdex 200 column; monomer to dimer
[2] = molecular target: recombinant canine Interleukin 31 produced in Nicotiana benthamiana (canine); test: dynamic light scattering; hydrodynamic radius of cIL-31 at pH 7.5; monomer to dimer
[3] = molecular target: canine neonatal Fc receptor, C-terminus biotinylated, attached to Streptavidin (cFcRn-SmBiT) (canine); test: other; competition with IgG-LgBiT tracer
[4] = molecular target: recombinant canine Interleukin 31 produced in HEK cells (canine); test: dynamic light scattering; hydrodynamic radius of cIL-31 at pH 7.5; monomer to dimer
[5] = molecular target: T1, canine neonatal Fc receptor, C-terminus …; test: competition with IgG-LgBiT tracer
[6] = molecular target: T2, recombinant canine Interleukin 31 …; test: BLI
[7] = molecular target: T3, recombinant canine Interleukin 31 …; test: BLI; Lokivetmab or M1 (5 nM) immobilised on ProA biosensors to 1 nm; rcIL-31 (HEK) 300 to 80 nM in solution; 25 °C, PBS pH 7.4, 0.1% BSA, 0.02% Tween; association 360 s, dissociation 600 s; global fit, KD from kd/ka; conditions: both partners purified

IC50 [5] [µg/mL] | koff [6] [s⁻¹] | Kd [7] [nM] | Molecule | further results
– | – | – | recombinant canine Interleukin 31 produced in Nicotiana benthamiana (ligand) | stoichiometry N [1]: 2; stoichiometry N [2]: 2
– | – | – | Lokivetmab | IC50 [3]: 68.7 µg/mL
– | – | – | recombinant canine Interleukin 31 produced in HEK cells (ligand) | stoichiometry N [4]: 2
17.9 | – | – | plant-made anti-cIL-31 monoclonal antibody M1 produced in wild-type N. benthamiana (antibody) chain 1: EVQLVESGGDLVKPGGSLRLSCVASGFTFSNYGMSWVRQAPGKGLQWVATISYGGSYTYYPDNIKGRFTISRDNAKNTLYLQMNSLRAEDTAMYYCVRGYGYDTMDYWGQGTLVTVSS chain 2: EIVMTQSPASLSLSQEEKVTITCKASQSVSFAGTGLMHWYQQKPGQAPKLLIYRASNLEAGVPSRFSGSGSGTDFSFTISSLEPEDVAVYYCQQSREYPWTFGQGTKLEIK | –
21.6 | 0.00345 | 28.5 | plant-made anti-cIL-31 monoclonal antibody M1 produced in FucT/XylT mutant (ΔXF) N. benthamiana (antibody, V domains shown, CAN-34D03-VH-568-1); CAN 34D03-VL998-1); LC constant domain kappa (XP_035562095.1); Full IgG; N-glycans lack core α(1,3)-fucose and β(1,2)-xylose; also called M1 ΔXF; plant-made Lokivetmab biosimilar; source: ΔXF N. benthamiana, transient expression, purified (Protein A: Hi Screen Fibro PrismA)) VH: EVQLVESGGDLVKPGGSLRLSCVASGFTFSNYGMSWVRQAPGKGLQWVATISYGGSYTYYPDNIKGRFTISRDNAKNTLYLQMNSLRAEDTAMYYCVRGYGYDTMDYWGQGTLVTVSS VL: EIVMTQSPASLSLSQEEKVTITCKASQSVSFAGTGLMHWYQQKPGQAPKLLIYRASNLEAGVPSRFSGSGSGTDFSFTISSLEPEDVAVYYCQQSREYPWTFGQGTKLEIK | –
– | 0.00205 | 27.4 | Lokivetmab (antibody, V domains shown, Caninized IgG; major N-glycoform GnGnF (79%); also called caninized monoclonal antibody targeting IL-31; commercial homolog of M1; source: produced in CHO cells; commercial product) VH: EVQLVESGGDLVKPGGSLRLSCVASGFTFSNYGMSWVRQAPGKGLQWVATISYGGSYTYYPDNIKGRFTISRDNAKNTLYLQMNSLRAEDTAMYYCVRGYGYDTMDYWGQGTLVTVSS VL: EIVMTQSPASLSLSQEEKVTITCKASQSVSFAGTGLMHWYQQKPGQAPKLLIYRASNLEAGVPSRFSGSGSGTDFSFTISSLEPEDVAVYYCQQSREYPWTFGQGTKLEIK | –
